The source of these data is PMC10847046.

The experiment concerns the target M66/StcE (Yersinia entomophaga (endogenous in the ΔLC derivative of MH96)). As to the kind of experiment: cryo-EM structure.

As a reminder, the stoichiometry N is the number of molecules, sites or subunits per partner or assembly. M66/StcE (enzyme) displayed a stoichiometry N of 4.
